Source: article doi:10.1101/2022.11.10.512828
Like-named read-outs stand apart in the source and are kept apart here.

How the values were obtained:
[1] = biological target: LS-αβICD, heteropentamer of two LS-αICD and three LS-βICD chains (Saccharomyces cerevisiae | rat) (UniProt P50861); assay: ITC
[2] = biological target: LS-αβICD, heteropentamer of two LS-αICD and three LS-βICD chains (Saccharomyces cerevisiae | rat) (UniProt P50861); assay: SEC
[3] = biological target: LS-αβICD, heteropentamer of two LS-αICD and three LS-βICD chains (Saccharomyces cerevisiae | rat) (UniProt P50861); assay: SEC; remark: listed apart in the source
[4] = biological target: LS-αβICD, heteropentamer of two LS-αICD and three LS-βICD chains (Saccharomyces cerevisiae | rat) (UniProt P50861); assay: SEC; remark: listed apart in the source
[5] = biological target: unmodified lumazine synthase from Saccharomyces cerevisiae (LS^wt) (Saccharomyces cerevisiae) (UniProt P50861); assay: AUC
[6] = biological target: unmodified lumazine synthase from Saccharomyces cerevisiae (LS^wt) (Saccharomyces cerevisiae) (UniProt P50861); assay: SEC
[7] = biological target: LS-αICD chain of the co-expression construct (pETDuet1, first cloning site) (Saccharomyces cerevisiae | rat) (UniProt P50861); assay: densitometry of Coomassie-stained SDS-PAGE bands of the purified complex; conditions: scale: βICD chains to 2 αICD chains in the pentamer

full-length rat gephyrin splice variant rC4 (natural protein)
Kd [1]: 490 nM | stoichiometry N [1]: 0.57 | amount of gephyrin bound [2]: 4 nmol | stoichiometry N (gephyrin trimers to 3 LS pentamers) [3]: 4 | amount of gephyrin bound [4]: 3 nmol | percent of gephyrin bound [4]: 75% | stoichiometry N (gephyrin trimer per LS pentamer) [4]: 1 | stoichiometry N (gephyrin trimers to 3 LS pentamers) [4]: 3

unmodified lumazine synthase from Saccharomyces cerevisiae (LS^wt) (from UniProt P50861 2-169) (enzyme)
stoichiometry N [5]: 5 | stoichiometry N [6]: 5

gephyrin E-domain (GephE) dimer (domain or fragment)
Kd [1]: 680 nM | stoichiometry N [1]: 0.41

LS-βICD chain of the co-expression construct (pETDuet1, second cloning site) (from UniProt P50861 1-138; P50861 139-169)
stoichiometry N [7]: 3
